Laboratory results as given in patent publication US20180148477A1 (published 2018).
Bridge positions count the residues as written; N and C are the ends. Square brackets hold non-standard residues; d marks the D form. Ends that are not written are not given here. Bip = N[C@@H](Cc1ccc(-c2ccccc2)cc1)C(=O)O; 1Nal = N[C@@H](Cc1cccc2ccccc12)C(=O)O; 2Nal = N[C@@H](Cc1ccc2ccccc2c1)C(=O)O; d1Nal = N[C@H](Cc1cccc2ccccc12)C(=O)O; d2Nal = N[C@H](Cc1ccc2ccccc2c1)C(=O)O; NMeR = CN[C@@H](CCCNC(=N)N)C(=O)O; hPhe = N[C@@H](CCc1ccccc1)C(=O)O; Tic = O=C(O)[C@@H]1Cc2ccccc2CN1; β3hE = N[C@@H](CCC(=O)O)CC(=O)O; Aic = NC1(C(=O)O)Cc2ccccc2C1; NMeK = CN[C@@H](CCCCN)C(=O)O; Pen = CC(C)(S)[C@H](N)C(=O)O; dNMeK = CN[C@H](CCCCN)C(=O)O

Key:
[1] = biological target: rh integrin α4β7 (R&D Systems #5397-A30) (human) (UniProt P13612); assay: competition ELISA vs MAdCAM-1
[2] = biological target: α4β1 (R&D Systems #5668-A4) (UniProt P13612); assay: competition ELISA vs VCAM-1
[3] = biological target: human α4β7 integrin on cells (human) (UniProt P13612); assay: RPMI8866 adhesion to MAdCAM-1
[4] = biological target: mouse α4β7 integrin on TK1 cells (mouse) (UniProt Q00651); assay: TK1 adhesion to MAdCAM-1
[5] = biological target: human α4β7 integrin on cells (human) (UniProt P13612); assay: PBMC memory T cell adhesion

Sequence of mouse α4β7 integrin on TK1 cells (mouse) (Q00651 41-1039, chain 1 of 2): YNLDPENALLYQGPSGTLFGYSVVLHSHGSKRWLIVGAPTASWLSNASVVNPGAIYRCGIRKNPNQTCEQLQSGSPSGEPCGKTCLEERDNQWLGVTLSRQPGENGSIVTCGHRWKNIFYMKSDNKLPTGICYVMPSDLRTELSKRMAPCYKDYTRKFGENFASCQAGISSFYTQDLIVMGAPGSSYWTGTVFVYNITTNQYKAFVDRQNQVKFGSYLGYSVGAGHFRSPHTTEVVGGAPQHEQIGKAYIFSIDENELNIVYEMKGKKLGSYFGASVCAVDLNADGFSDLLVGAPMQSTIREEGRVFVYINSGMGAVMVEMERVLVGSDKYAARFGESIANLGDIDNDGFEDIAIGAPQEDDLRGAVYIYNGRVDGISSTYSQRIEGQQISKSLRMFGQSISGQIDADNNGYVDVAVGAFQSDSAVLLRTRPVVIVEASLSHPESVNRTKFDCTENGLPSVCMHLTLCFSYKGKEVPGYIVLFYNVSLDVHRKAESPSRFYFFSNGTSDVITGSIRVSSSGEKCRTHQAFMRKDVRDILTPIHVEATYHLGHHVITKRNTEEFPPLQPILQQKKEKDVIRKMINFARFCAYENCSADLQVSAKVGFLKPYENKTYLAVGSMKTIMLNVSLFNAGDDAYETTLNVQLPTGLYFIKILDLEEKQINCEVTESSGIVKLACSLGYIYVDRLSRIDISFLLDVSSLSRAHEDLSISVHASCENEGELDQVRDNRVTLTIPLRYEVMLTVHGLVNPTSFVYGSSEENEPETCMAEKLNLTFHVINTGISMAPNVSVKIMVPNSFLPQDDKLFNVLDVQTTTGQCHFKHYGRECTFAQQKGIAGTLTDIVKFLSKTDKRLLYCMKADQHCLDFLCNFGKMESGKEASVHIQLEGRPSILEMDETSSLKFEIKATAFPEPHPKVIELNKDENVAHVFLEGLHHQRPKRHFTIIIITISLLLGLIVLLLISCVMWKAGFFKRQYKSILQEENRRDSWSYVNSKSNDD
Sequence of mouse α4β7 integrin on TK1 cells (mouse) (P26011 20-806, chain 2 of 2, further chain): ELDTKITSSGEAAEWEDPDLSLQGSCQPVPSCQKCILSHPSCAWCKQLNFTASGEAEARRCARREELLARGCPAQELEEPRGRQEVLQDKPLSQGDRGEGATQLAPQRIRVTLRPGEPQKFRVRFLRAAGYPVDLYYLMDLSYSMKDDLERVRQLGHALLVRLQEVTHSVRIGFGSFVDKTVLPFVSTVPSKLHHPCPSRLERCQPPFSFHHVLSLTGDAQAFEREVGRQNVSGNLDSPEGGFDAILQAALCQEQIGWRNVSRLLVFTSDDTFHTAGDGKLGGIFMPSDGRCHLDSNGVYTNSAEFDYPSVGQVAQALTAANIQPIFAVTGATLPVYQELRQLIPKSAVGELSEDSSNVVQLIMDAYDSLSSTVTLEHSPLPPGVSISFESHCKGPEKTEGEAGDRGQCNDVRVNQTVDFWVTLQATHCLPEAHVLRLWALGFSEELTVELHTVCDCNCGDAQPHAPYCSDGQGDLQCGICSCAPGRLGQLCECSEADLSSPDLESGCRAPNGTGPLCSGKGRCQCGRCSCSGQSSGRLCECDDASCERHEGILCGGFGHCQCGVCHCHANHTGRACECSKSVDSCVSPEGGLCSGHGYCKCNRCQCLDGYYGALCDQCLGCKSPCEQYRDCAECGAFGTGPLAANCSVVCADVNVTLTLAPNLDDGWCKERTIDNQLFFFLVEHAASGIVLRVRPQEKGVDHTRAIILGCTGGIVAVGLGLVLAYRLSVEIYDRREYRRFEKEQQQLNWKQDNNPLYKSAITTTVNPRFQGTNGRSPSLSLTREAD

Binder	IC50 [1] [nM]	IC50 [2] [nM]	IC50 [3] [nM]	IC50 [4] [nM]	IC50 [5] [nM]
Ac-[Pen][NMeR]SDTL[Pen][1Nal]E[dNMeK]-NH2 (disulfide 1-7; SMILES CC(=O)N[C@@H]1C(=O)N(C)[C@@H](CCCNC(=N)N)C(=O)N[C@@H](CO)C(=O)N[C@@H](CC(=O)O)C(=O)N[C@@H]([C@@H](C)O)C(=O)N[C@@H](CC(C)C)C(=O)N[C@H](C(=O)N[C@@H](Cc2cccc3ccccc23)C(=O)N[C@@H](CCC(=O)O)C(=O)N(C)[C@H](CCCCN)C(N)=O)C(C)(C)SSC1(C)C) [SEQ ID NO: 18]	> 10	> 500			
Ac-[Pen][NMeR]SDTL[Pen][2Nal]Y[dK]-NH2 (disulfide 1-7; also: dimer via DIG) [SEQ ID NO: 23]		> 100	< 10		
Ac-[Pen][NMeR]SDTL[Pen][Tic][β3hE]-NH2 (disulfide 1-7 (inferred)) [SEQ ID NO: 154]		> 1000	> 100	> 1000	
Ac-[Pen][NMeR]SDTL[Pen][1Nal][dE][dK]-NH2 (disulfide 1-7; SMILES CC(=O)N[C@@H]1C(=O)N(C)[C@@H](CCCNC(=N)N)C(=O)N[C@@H](CO)C(=O)N[C@@H](CC(=O)O)C(=O)N[C@@H]([C@@H](C)O)C(=O)N[C@@H](CC(C)C)C(=O)N[C@H](C(=O)N[C@@H](Cc2cccc3ccccc23)C(=O)N[C@H](CCC(=O)O)C(=O)N[C@H](CCCCN)C(N)=O)C(C)(C)SSC1(C)C) [SEQ ID NO: 8]	> 25				
Ac-[Pen][NMeR]SDTL[Pen][d2Nal]E[dK]-NH2 (disulfide 1-7; SMILES CC(=O)N[C@@H]1C(=O)N(C)[C@@H](CCCNC(=N)N)C(=O)N[C@@H](CO)C(=O)N[C@@H](CC(=O)O)C(=O)N[C@@H]([C@@H](C)O)C(=O)N[C@@H](CC(C)C)C(=O)N[C@H](C(=O)N[C@H](Cc2ccc3ccccc3c2)C(=O)N[C@@H](CCC(=O)O)C(=O)N[C@H](CCCCN)C(N)=O)C(C)(C)SSC1(C)C) [SEQ ID NO: 11]	> 25				
Ac-[Pen][NMeR]SDTL[Pen][2Nal][dE][dNMeK]-NH2 (disulfide 1-7 (inferred)) [SEQ ID NO: 13]	> 10		> 100		
Ac-[Pen][NMeR]SDTL[Pen]W[Aic][dK]-NH2 (disulfide 1-7; SMILES CC(=O)N[C@@H]1C(=O)N(C)[C@@H](CCCNC(=N)N)C(=O)N[C@@H](CO)C(=O)N[C@@H](CC(=O)O)C(=O)N[C@@H]([C@@H](C)O)C(=O)N[C@@H](CC(C)C)C(=O)N[C@H](C(=O)N[C@@H](Cc2c[nH]c3ccccc23)C(=O)NC2(C(=O)N[C@H](CCCCN)C(N)=O)Cc3ccccc3C2)C(C)(C)SSC1(C)C) [SEQ ID NO: 51]	> 25				
Ac-[Pen][NMeR]SDTL[Pen][2Nal][dE][dK]-NH2 (disulfide 1-7; SMILES CC(=O)N[C@@H]1C(=O)N(C)[C@@H](CCCNC(=N)N)C(=O)N[C@@H](CO)C(=O)N[C@@H](CC(=O)O)C(=O)N[C@@H]([C@@H](C)O)C(=O)N[C@@H](CC(C)C)C(=O)N[C@H](C(=O)N[C@@H](Cc2ccc3ccccc3c2)C(=O)N[C@H](CCC(=O)O)C(=O)N[C@H](CCCCN)C(N)=O)C(C)(C)SSC1(C)C) [SEQ ID NO: 9]	> 10		> 100		
[Pen][NMeR]SDTL[Pen][2Nal]E (disulfide 1-7 (inferred); not fully specified (bridges); printed as Cyclo-[Pen-N-Me-R-S-D-T-L-Pen-2-Nal-E], Pen-Pen disulfide) [SEQ ID NO: 143]	250		> 10000		
Ac-[Pen][NMeR]SDTL[Pen][Bip]E[dK]-NH2 (disulfide 1-7 (inferred); also: homodimer via DIG) [SEQ ID NO: 134]	< 10	> 100	< 10		
Ac-[Pen][NMeR]SDTL[Pen][2Nal]E[NMeK]-NH2 (disulfide 1-7 (inferred); also: homodimer via DIG) [SEQ ID NO: 138]	> 10		> 10		
Ac-[Pen][NMeR]SDTL[Pen][d1Nal]E[dK]-NH2 (disulfide 1-7; SMILES CC(=O)N[C@@H]1C(=O)N(C)[C@@H](CCCNC(=N)N)C(=O)N[C@@H](CO)C(=O)N[C@@H](CC(=O)O)C(=O)N[C@@H]([C@@H](C)O)C(=O)N[C@@H](CC(C)C)C(=O)N[C@H](C(=O)N[C@H](Cc2cccc3ccccc23)C(=O)N[C@@H](CCC(=O)O)C(=O)N[C@H](CCCCN)C(N)=O)C(C)(C)SSC1(C)C) [SEQ ID NO: 10]	> 10				
Ac-[Pen][NMeR]SDTL[Pen][2Nal]E[dNMeK]-NH2 (disulfide 1-7 (inferred)) [SEQ ID NO: 15]	< 10				
Ac-[Pen][NMeR]SDTL[Pen][1Nal][dE][dNMeK]-NH2 (disulfide 1-7 (inferred)) [SEQ ID NO: 12]	> 25				
Ac-[Pen][NMeR]SDTL[Pen][Bip][β3hE][NMeK]-NH2 (disulfide 1-7 (inferred); also: dimer via DIG linker) [SEQ ID NO: 150]	< 10	> 1000	< 10	< 10	
Ac-[Pen][NMeR]SDTL[Pen][2Nal][β3hE]-NH2 (disulfide 1-7 (inferred)) [SEQ ID NO: 155]		> 1000	> 25	> 25	
Ac-[Pen][NMeR]SDTL[Pen][2Nal][hPhe][dK]-NH2 (disulfide 1-7; SMILES CC(=O)N[C@@H]1C(=O)N(C)[C@@H](CCCNC(=N)N)C(=O)N[C@@H](CO)C(=O)N[C@@H](CC(=O)O)C(=O)N[C@@H]([C@@H](C)O)C(=O)N[C@@H](CC(C)C)C(=O)N[C@H](C(=O)N[C@@H](Cc2ccc3ccccc3c2)C(=O)N[C@@H](CCc2ccccc2)C(=O)N[C@H](CCCCN)C(N)=O)C(C)(C)SSC1(C)C) [SEQ ID NO: 50]	> 10				
Ac-[Pen][NMeR]SDTL[Pen][2Nal][β3hE][dK]-NH2 (disulfide 1-7 (inferred); also: homodimer via DIG) [SEQ ID NO: 137]	< 10	> 1000	< 10		

The next lines start with the values.

IC50 [1] [nM]	IC50 [2] [nM]	IC50 [3] [nM]	IC50 [4] [nM]	IC50 [5] [nM]	Binder
< 10	> 100	< 10			Ac-[Pen][NMeR]SDTL[Pen][2Nal]E[dNMeK]-NH2 (disulfide 1-7; also: dimer via DIG) [SEQ ID NO: 41]
2	70	2.5	2.5		Ac-[Pen][NMeR]SDTL[Pen][2Nal]E[dK]-NH2 (disulfide 1-7; also: dimer via DIG, attachment site not given here) [Peptide 212]
< 10	> 100	< 10			Ac-[Pen][NMeR]SDTL[Pen][1Nal][dE][dNMeK]-NH2 (disulfide 1-7; also: dimer via DIG) [SEQ ID NO: 38]
< 10	> 100	< 10	< 10		Ac-[Pen][NMeR]SDTL[Pen][1Nal]E[dNMeK]-NH2 (disulfide 1-7; also: dimer via DIG) [SEQ ID NO: 44]
< 10	> 500	< 10		> 50	Ac-[Pen][NMeR]SDTL[Pen][1Nal][β3hE][NMeK]-NH2 (disulfide 1-7 (inferred); also: dimer via DIG linker) [SEQ ID NO: 142]
< 10	> 100	< 10			Ac-[Pen][NMeR]SDTL[Pen][1Nal]E[dK]-NH2 (disulfide 1-7; also: dimer via DIG) [SEQ ID NO: 24]
< 10	> 100	> 10			Ac-[Pen][NMeR]SDTL[Pen][2Nal][dE][dK]-NH2 (disulfide 1-7; also: dimer via DIG) [SEQ ID NO: 33]
< 10		> 10			Ac-[Pen][NMeR]SDTL[Pen][2Nal][dE][dK]-NH2 (disulfide 1-7; also: dimer via DIG) [SEQ ID NO: 29]
< 10	> 100	> 10			Ac-[Pen][NMeR]SDTL[Pen][1Nal][dE][dK]-NH2 (disulfide 1-7; also: dimer via DIG) [SEQ ID NO: 32]
